Source: patent US20220073599A1

Key:
[1] = target: human VEGFA-121-His (human) (UniProt P15692); assay: KinExA equilibrium titration in solution, VEGFA-121
human VEGFA-165 (human) = human VEGFA-165 (human) (UniProt P15692); assay: KinExA, VEGFA-165; set-up for VEGFA-165 not described
Sequence of human VEGFA-165 (human) (P15692 other isoform, or with tags, fused parts or gaps limits assumed): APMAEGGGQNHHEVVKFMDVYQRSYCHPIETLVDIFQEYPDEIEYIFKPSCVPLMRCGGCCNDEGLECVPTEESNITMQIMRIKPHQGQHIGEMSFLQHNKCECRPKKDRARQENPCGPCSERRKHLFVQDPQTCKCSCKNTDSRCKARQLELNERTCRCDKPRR

Sequence of Aflibercept-analogue (Fc fusion) (chain): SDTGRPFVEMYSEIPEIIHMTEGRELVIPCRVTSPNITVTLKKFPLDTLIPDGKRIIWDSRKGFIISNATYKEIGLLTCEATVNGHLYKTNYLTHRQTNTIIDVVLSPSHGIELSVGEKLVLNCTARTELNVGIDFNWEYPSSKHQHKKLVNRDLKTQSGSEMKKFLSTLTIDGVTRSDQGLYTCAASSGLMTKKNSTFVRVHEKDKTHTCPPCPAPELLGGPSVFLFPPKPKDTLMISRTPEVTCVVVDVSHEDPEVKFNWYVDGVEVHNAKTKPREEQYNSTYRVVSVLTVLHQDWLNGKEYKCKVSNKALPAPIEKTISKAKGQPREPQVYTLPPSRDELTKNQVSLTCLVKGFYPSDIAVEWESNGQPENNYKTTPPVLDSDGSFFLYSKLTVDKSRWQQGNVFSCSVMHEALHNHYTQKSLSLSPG
Sequence of human VEGFA-121-His (human) (P15692 other isoform, or with tags, fused parts or gaps): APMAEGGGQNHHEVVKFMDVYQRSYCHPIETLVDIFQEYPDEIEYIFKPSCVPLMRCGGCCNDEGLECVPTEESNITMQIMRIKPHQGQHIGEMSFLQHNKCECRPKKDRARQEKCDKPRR

Kd [1]: 0.2 pM
Kd (human VEGFA-165 (human)): 0.1 pM
Substance: Aflibercept-analogue (Fc fusion)
